Target: T1, lysozyme c (Lzm-S) (Canis lupus familiaris, UniProt P81709)
T1 construct: Lzm-S was purified in a manner described by Grobler et al (14); from tissue
T1 sequence (P81709 1-130): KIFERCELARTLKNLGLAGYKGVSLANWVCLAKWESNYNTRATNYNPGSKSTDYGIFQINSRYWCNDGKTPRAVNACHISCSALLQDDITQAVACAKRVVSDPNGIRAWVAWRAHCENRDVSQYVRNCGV
Experiment: Effect of enzyme treatment (of Lzm-S or of the trabeculae) on Lzm-S's depressant effect in right ventricular trabecular preparation
Format: cell-based, dog
Procedure: In subsequent experiments, the objective was to determine whether pretreatment of Lzm-S with the proteolytic enzyme proteinase-K reduced the extent to which myocardial depression developed in the in vitro preparation (7). Proteinase-K (attached to beaded agarose; Sigma Chemical, St Louis, Mo.) was added to the pure Lzm-S preparation. The effects of proteinase-K treated and nontreated Lzm-S on isometric tension were compared between the samples. Since proteinase-K is a non-specific proteolytic enzyme, a specific competitive inhibitor of lysozyme, TAC (chitotriose) was subsequently examined to determine whether it prevented the depression in isometric tension observed in the in vitro preparation (16,17).
Regardless of the type of carbohydrate structure to which Lzm-S may bind, it is possible to deglycosylate the carbohydrate structure by means of exoglycosidases in which a specific sugar residue is removed from the terminal end of the carbohydrate tree (47). […] In group 2, the trabeculae were initially bathed in sialidase (60 μl; 5 U/ml) for two hours to remove any N-acetylneuramic acid (NeuNAc) residues, after which the effect of Lzm-S was determined (all kits from Prozyme, San Leandro, Calif.; kit GE 23; Sialidase A). […]

B1: Proteinase K: nonspecific proteolytic enzyme attached to beaded agarose (protein, UniProt P06873 106-384, looked up)
Proteinase K: AAQTNAPWGLARISSTSPGTSTYYYDESAGQGSCVYVIDTGIEASHPEFEGRAQMVKTYYYSSRDGNGHGTHCAGTVGSRTYGVAKKTQLFGVKVLDDNGSGQYSTIIAGMDFVASDKNNRNCPKGVVASLSLGGGYSSSVNSAAARLQSSGVMVAVAAGNNNADARNYSPASEPSVCTVGASDRYDRRSSFSNYGSVLDIFGPGTSILSTWIGGSTRSISGTSMATPHVAGLAAYLMTLGKTTAASACRYIADTANKGDLSNIPFGTVNLLAYNNYQA
modifications: attached to agarose beads
With B1 the “Effect of enzyme treatment on Lzm-S's depressant activity” value was “reduction in depressant activity”.
